From article PMC4022648
Values joined by “and” are separate entries in the source; they are usually repeats but may differ in a detail not shown here. Identical values can stand only once.

What was measured:
[1] = biological target: naïve Hsp60 (human Hsp60 with its mitochondrial import signal) (human) (UniProt P10809); assay: SAXS; 20 °C, Guinier analysis; naïve Hsp60 at 23.8 µM
[2] = biological target: naïve Hsp60 (human Hsp60 with its mitochondrial import signal) (human) (UniProt P10809); assay: SAXS; 20 °C, Guinier analysis; naïve Hsp60 at 79.5 µM, GroEL at 52.5 µM
[3] = biological target: naïve Hsp60 (human Hsp60 with its mitochondrial import signal) (human) (UniProt P10809); assay: native gel or EMSA; Blue native PAGE, 4-16% Bis-Tris gels, sample buffer with 1% digitonin and 0.5% DDM, pH 7.2, Coomassie G-250; naïve Hsp60 at 1.9-20.7 µM, GroEL at 1.0-18.9 µM
[4] = biological target: naïve Hsp60 (human Hsp60 with its mitochondrial import signal) (human) (UniProt P10809); assay: static light scattering; Rayleigh ratio at 90° divided by concentration; naïve Hsp60 at 1.6-47.6 µM; compared with ideal lines for tetradecamer (882 kDa) and heptamer (441 kDa)
[5] = biological target: naïve Hsp60 (human Hsp60 with its mitochondrial import signal) (human) (UniProt P10809); assay: SEC; HPLC size exclusion, Shodex 806 and 804 in series, 24 °C, 20 mM Tris-HCl pH 8 + 10% glycerol; naïve Hsp60 at 0.8-16.0 µM, compared with GroEL at 7.0 µM and BSA

stoichiometry N [1]: 7 and 14 | stoichiometry N [2]: 14 | stoichiometry N [3]: 7 and 14 | stoichiometry N [4]: 7 and 14 | stoichiometry N [5]: 7 and 14
Substance: naïve Hsp60 (human Hsp60 with its mitochondrial import signal) (from UniProt P10809 27-573) (natural protein)
